Assay results as given in paper PMC5916898, “Global profiling of protein–DNA and protein–nucleosome binding affinities using quantitative mass spectrometry”.

What was measured:
Experiment in all cases: pulldown; 150 mM NaCl, 50 mM Tris pH 8, 0.25% NP-40, 1 mM TCEP; 4 C, 2 h; 100 ug HeLa nuclear lysate
Settings in all cases: protein: extract; label: 5' biotin (strand 1)
PAX6 = PAX6 (Homo sapiens, UniProt P26367)
ZBTB20 = target: T1, ZBTB20 (Homo sapiens, UniProt Q9HC78)
T1 sequence: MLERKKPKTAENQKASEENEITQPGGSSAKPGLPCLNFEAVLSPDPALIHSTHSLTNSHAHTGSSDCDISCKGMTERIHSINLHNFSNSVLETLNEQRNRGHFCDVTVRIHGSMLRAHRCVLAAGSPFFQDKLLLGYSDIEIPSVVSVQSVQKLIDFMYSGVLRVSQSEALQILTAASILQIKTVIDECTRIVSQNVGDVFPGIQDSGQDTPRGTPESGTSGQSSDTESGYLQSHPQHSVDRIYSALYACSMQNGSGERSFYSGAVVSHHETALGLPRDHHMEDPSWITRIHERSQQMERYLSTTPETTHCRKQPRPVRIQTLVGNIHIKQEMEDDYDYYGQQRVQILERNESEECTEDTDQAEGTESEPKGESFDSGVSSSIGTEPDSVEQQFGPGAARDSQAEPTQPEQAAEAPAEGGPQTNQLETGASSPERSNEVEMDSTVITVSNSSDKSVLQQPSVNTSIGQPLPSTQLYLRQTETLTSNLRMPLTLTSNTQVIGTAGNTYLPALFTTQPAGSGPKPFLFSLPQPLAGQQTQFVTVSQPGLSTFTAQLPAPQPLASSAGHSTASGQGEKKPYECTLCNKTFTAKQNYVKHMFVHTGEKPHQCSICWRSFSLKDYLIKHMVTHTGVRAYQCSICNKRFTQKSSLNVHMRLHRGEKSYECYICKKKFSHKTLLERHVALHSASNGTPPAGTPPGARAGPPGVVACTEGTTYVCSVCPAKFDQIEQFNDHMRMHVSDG

ZFHX3 = ZFHX3 (Homo sapiens, UniProt Q15911)
HOXC10 = HOXC10 (Homo sapiens, UniProt Q9NYD6)
ZNF787 = ZNF787 (Homo sapiens, UniProt Q6DD87)
SP4 = SP4 (Homo sapiens, UniProt Q02446)
SMAD4 = SMAD4 (Homo sapiens, UniProt Q13485)
GLIS2 = target: T2, GLIS2 (Homo sapiens, UniProt Q9BZE0)
T2 sequence: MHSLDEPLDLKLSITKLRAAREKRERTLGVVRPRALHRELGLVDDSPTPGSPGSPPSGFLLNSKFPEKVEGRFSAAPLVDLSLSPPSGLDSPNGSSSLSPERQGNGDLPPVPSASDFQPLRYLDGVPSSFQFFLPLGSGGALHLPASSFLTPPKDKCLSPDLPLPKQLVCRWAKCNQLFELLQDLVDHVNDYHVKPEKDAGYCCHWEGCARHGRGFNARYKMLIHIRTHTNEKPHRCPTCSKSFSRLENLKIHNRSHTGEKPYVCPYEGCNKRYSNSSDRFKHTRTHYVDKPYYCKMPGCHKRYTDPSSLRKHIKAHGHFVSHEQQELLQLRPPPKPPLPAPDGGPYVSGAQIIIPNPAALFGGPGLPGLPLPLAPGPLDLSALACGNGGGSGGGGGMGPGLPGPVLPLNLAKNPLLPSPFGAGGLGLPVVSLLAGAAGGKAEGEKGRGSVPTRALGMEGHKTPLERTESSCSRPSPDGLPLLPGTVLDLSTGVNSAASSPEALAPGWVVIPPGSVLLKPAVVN

Sequence of SMAD4 (Q13485 whole entry): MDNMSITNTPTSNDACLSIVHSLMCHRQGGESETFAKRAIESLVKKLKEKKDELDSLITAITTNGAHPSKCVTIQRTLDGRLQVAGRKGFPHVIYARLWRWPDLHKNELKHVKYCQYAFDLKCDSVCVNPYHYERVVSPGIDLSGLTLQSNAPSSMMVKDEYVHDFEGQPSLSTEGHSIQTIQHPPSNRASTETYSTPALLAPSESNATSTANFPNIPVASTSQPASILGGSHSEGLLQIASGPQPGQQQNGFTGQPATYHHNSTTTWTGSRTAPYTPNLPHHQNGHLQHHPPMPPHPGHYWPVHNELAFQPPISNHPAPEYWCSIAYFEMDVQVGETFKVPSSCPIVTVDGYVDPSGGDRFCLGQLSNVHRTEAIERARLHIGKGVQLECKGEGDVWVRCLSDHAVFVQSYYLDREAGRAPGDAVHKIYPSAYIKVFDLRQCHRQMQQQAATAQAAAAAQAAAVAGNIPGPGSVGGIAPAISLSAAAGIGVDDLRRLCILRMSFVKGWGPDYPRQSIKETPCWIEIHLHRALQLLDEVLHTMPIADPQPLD
Sequence of SP4 (Q02446 whole entry): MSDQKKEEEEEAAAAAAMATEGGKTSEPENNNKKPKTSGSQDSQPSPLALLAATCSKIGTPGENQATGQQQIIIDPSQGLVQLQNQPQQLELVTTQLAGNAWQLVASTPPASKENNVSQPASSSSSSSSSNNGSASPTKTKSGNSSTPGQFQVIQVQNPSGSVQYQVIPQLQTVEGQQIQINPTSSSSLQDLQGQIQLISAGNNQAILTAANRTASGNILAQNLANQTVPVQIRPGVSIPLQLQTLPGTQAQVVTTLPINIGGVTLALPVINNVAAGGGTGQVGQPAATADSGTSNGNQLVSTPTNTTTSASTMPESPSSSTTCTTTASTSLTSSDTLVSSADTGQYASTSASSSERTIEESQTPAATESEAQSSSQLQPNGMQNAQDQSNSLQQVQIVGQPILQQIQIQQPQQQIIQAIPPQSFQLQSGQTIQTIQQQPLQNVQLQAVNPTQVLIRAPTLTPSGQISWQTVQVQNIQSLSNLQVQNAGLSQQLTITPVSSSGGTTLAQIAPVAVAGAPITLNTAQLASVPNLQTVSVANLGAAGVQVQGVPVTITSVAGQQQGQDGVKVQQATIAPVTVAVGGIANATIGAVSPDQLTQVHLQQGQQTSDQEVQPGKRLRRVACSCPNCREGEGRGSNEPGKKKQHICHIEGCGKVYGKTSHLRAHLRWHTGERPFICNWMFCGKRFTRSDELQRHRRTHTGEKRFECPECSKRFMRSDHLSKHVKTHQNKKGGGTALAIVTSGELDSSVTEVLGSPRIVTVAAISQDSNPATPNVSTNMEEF
Sequence of ZNF787 (Q6DD87 whole entry): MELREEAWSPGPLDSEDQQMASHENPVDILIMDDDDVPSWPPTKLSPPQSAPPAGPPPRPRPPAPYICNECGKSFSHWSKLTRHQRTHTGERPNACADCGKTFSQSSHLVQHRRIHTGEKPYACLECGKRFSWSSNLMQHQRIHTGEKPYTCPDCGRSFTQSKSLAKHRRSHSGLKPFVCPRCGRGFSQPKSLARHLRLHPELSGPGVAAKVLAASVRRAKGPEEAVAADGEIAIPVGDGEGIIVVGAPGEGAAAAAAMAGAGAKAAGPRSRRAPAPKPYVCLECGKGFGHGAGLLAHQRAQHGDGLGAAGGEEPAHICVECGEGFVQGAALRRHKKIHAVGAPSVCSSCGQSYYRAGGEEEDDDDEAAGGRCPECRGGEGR
Sequence of PAX6 (P26367 whole entry): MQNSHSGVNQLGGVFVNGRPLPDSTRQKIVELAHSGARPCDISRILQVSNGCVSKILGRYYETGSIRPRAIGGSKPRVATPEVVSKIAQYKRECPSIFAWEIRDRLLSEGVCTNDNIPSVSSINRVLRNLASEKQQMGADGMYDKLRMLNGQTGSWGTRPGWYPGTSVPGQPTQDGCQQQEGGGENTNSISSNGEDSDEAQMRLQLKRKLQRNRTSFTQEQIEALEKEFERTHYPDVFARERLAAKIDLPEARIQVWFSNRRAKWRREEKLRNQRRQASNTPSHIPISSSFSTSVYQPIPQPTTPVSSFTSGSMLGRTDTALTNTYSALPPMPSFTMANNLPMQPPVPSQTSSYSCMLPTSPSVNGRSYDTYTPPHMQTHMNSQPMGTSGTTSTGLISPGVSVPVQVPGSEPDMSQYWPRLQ
Sequence of HOXC10 (Q9NYD6 whole entry): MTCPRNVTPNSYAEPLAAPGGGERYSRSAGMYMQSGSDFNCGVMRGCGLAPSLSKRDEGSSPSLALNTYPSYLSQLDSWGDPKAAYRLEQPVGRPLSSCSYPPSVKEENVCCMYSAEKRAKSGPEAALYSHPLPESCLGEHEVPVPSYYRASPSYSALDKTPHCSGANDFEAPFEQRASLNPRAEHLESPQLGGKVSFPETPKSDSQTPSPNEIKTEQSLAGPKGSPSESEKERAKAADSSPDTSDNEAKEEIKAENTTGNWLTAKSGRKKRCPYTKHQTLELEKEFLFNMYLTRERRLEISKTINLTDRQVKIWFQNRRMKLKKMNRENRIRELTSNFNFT

B1: TEAD (dsDNA)
DNA 1: TCGGGACCCAGGCCTGGAATGTTTCCACC
DNA 2: GGTGGAAACATTCCAGGCCTGGGTCCCGA
apparent K (half saturation) (PAX6): 191 nM

B2: TATA-box (dsDNA)
DNA 1: GCGGCGCTCTATATAAGTGGGCAGTG
DNA 2: CACTGCCCACTTATATAGAGCGCCGC
apparent K (half saturation) (ZBTB20): 98.7 nM
apparent K (half saturation) (ZFHX3): 289 nM
apparent K (half saturation) (HOXC10): 87.8 nM

B3: CTCF (dsDNA)
DNA 1: TCAGAGTGGCGGCCAGCAGGGGGCGCCCTTGCCAGA
DNA 2: TCTGGCAAGGGCGCCCCCTGCTGGCCGCCACTCTGA
apparent K (half saturation) (ZNF787): 370 nM
apparent K (half saturation) (SP4): 41.3 nM
apparent K (half saturation) (SMAD4): 153 nM
apparent K (half saturation) (GLIS2): 15 nM
